Here are results for one molecule from patent US20020155577A1 (AVENTIS PHARMA S A, published 2002).

The target in the experiment is T1, PAP1 (Parkin Associated Protein 1) fragment encoded by the insert of library plasmid pGAD-Ly111b, fused to … (human, UniProt Q4VX76 267-610).
T1 construct: Prey of the yeast two-hybrid test; It is a partial PAP1 clone from a human peripheral lymphocyte cDNA library; Any linker between GAL4 and the insert is not described; also called fragment of PAP1; plasmid isolated during the screening of the two-hybrid library
T1 sequence: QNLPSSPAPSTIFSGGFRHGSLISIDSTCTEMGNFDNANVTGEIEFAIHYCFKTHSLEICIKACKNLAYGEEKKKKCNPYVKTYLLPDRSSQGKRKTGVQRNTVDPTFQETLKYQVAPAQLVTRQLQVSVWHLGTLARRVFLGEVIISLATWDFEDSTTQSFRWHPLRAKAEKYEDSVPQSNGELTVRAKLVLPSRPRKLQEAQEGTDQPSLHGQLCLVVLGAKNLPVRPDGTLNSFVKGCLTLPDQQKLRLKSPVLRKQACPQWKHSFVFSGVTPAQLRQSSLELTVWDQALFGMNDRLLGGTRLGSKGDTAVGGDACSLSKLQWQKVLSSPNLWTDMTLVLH
In words: yeast two-hybrid in strain L40, beta-Gal activity assay. As to the method:
A sheet of nitrocellulose is preplaced on the Petri dish containing the yeast clones, which are separated from each other. This sheet is then immersed in liquid nitrogen for 30 seconds, in order to rupture the yeasts and thus to release the β-galactosidase activity. After thawing, the sheet of nitrocellulose is placed, colonies facing upwards, in another Petri dish containing a Whatman paper which has been presoaked in 1.5 ml of PBS solution (60 mM Na₂HPO₄, 40 mM NaH₂PO₄, 10 mM KCl, 1 mM MgSO₄, pH 7) containing 15 μl of X-Gal (5-bromo-4-chloro-3-indoyl-β-D-galactoside) at 40 mg/ml of N,N-dimethylformamide. The dish is then placed in an incubator at 37° C. The assay is termed positive when the colonies on the membrane turn blue after 12 hours.
To determine the specificity of interaction between the fragment corresponding to the PAP1 protein and the central region of parkin, a two-hybrid test for specific interaction with other nonrelevant proteins was carried out. To carry out this test, we transformed strain L40 with the control plasmids plex9-cAPP or pLex9-HaRasVal12, in place of the plasmid pLex9-parkin (135-290), which respectively encode the cytoplasmic domain of the APP or the HaRasVal12 protein, which are fused to the LexA DNA binding domain, and with the plasmid isolated during the screening of the two-hybrid library. […]

B1: central region of parkin (amino acids 135-290) fused to the LexA bacterial repressor, from vector pLex9-parkin (135-290) (other)
chain: GSPAGRSIYNSFYVYCKGPCQRVQPGKLRVQCSTCRQATLTLTQGPSCWDDVLIPNRMSGECQSPHCPGTSAEFFFKCGAHPTSDKETSVALHLIATNSRNITCITCTDVRSPVLVFQCNSRHVICLDCFHLYCVTRLNDRQFVHDPQLGYSLPCV
notes: also called central portion of parkin; not shown: LexA bacterial repressor as encoded by vector pLex9 (pBTM116)
As to B1, the binding result is on record as “binds”.
